These results are taken from patent US20070231324A1.

The target in this assay is CD20 (human) (UniProt P11836). The experiment in a line: FACS staining of Ramos, Daudi, Raji and BJAB B lymphoma cells.
Sequence of UniProt P11836 (P11836 whole entry): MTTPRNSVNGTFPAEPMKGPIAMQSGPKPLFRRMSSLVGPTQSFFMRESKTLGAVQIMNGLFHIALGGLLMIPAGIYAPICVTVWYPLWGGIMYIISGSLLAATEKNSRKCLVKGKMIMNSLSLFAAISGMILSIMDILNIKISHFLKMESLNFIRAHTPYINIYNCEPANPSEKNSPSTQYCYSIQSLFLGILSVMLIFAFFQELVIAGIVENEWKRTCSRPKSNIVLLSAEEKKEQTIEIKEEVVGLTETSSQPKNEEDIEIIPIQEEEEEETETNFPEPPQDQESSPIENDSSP

Take “RITUXAN® (rituximab), monoclonal antibody specific for CD20”: the mean fluorescence shift fell in the range of 5 to 15 units.
